From patent US20130045539

Tested on: hsRAG1 engineered meganuclease (I-CreI-derived) (artificial (I-CreI backbone, Chlamydomonas reinhardtii?))
Assay: cell_activity
Conditions: HEK-293, meganuclease-driven targeted integration at RAG1; other lines 7-16%; indirect readout of cleavage

## human RAG1 locus meganuclease target site
  activity (% targeted clones): 44
